In test [1] the target is Construct 7 (human NaPi2b del 317-326) (human) (UniProt O95436). Description: flow cytometry, transfected HEK293-6e cells, antibody 50 nM (footnote b).
In test [2] the target is Construct 1 (chimeric human NaPi2b, swap in NaPi2c in 239-259) (human). Described as above.
In test [3] the target is Construct 3 (chimeric human NaPi2b, swap in NaPi2c in 304-321) (human). The test is described as above.
Test [4] addresses Full length human NaPi2b (sodium-dependent phosphate transporter 2B, SLC34A2) (human) (UniProt O95436). The description is as above.
In test [5] the target is Construct 5 (chimeric human NaPi2b, swap in NaPi2a in 304-348) (human). The description is as above.
Sequence of Construct 5 (chimeric human NaPi2b, swap in NaPi2a in 304-348) (human) (O95436 other isoform, or with tags, fused parts or gaps mutant): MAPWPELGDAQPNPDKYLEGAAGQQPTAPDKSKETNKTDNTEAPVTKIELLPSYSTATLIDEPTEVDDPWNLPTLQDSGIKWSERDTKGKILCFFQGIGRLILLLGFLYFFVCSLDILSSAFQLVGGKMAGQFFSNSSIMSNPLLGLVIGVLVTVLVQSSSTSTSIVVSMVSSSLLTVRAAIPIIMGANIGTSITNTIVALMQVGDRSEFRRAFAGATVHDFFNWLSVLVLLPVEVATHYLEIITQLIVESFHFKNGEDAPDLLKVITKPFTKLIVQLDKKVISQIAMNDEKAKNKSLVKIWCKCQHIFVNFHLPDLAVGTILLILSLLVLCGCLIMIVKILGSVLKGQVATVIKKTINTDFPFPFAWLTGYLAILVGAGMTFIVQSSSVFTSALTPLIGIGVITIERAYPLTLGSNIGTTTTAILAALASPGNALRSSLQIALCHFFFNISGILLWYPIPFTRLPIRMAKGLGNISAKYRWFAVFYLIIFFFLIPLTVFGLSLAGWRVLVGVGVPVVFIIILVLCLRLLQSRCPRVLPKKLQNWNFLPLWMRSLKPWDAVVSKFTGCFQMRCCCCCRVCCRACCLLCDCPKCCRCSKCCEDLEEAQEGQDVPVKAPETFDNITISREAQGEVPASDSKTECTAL
Test [6] has as its target Construct 2 (chimeric human NaPi2b, swap in NaPi2c in 280-301) (human). Described as above.
Test [7] has as its target Construct 4 (chimeric human NaPi2b, swap in NaPi2c in 341-358) (human). The test is described as above.
Test [8] addresses Construct 6 (human NaPi2b del 317-333) (human) (UniProt O95436). Described as above.
Test [9] concerns the target Construct 7 (human NaPi2b del 317-326) (human) (UniProt O95436). As to the kind of experiment: flow cytometry, transfected HEK293-6e cells, antibody 5 nM (footnote b).
Test [10] deals with Construct 1 (chimeric human NaPi2b, swap in NaPi2c in 239-259) (human). Described as above.
The target in test [11] is Construct 3 (chimeric human NaPi2b, swap in NaPi2c in 304-321) (human). Described as above.
The target of test [12] is Full length human NaPi2b (sodium-dependent phosphate transporter 2B, SLC34A2) (human) (UniProt O95436). Described as above.
Sequence of Full length human NaPi2b (sodium-dependent phosphate transporter 2B, SLC34A2) (human) (O95436 whole entry): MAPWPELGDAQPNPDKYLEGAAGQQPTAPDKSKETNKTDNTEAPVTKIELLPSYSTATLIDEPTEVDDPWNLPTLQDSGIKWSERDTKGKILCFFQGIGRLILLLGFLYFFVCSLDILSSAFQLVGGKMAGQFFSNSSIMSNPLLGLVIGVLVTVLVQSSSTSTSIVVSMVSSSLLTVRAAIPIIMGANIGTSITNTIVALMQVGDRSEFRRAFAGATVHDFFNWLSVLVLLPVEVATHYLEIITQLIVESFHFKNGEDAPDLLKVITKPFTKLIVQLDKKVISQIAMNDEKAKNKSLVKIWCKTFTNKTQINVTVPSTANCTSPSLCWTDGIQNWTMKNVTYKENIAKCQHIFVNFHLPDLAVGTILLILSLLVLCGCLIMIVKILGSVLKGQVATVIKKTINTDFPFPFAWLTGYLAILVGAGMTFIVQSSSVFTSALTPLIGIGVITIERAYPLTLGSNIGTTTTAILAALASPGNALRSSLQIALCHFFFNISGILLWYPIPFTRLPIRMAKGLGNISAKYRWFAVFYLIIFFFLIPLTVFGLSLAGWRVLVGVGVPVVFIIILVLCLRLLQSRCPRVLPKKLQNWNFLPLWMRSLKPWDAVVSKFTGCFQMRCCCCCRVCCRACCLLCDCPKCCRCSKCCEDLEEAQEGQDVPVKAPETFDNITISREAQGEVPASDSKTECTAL
In test [13] the target is Construct 5 (chimeric human NaPi2b, swap in NaPi2a in 304-348) (human). The description is as above.
Test [14] concerns the target Construct 2 (chimeric human NaPi2b, swap in NaPi2c in 280-301) (human). The description is as above.
Test [15] concerns the target Construct 4 (chimeric human NaPi2b, swap in NaPi2c in 341-358) (human). The test is described as above.
Test [16] concerns the target Construct 6 (human NaPi2b del 317-333) (human) (UniProt O95436). The test is described as above.
Test [17] has as its target Construct 7 (human NaPi2b del 317-326) (human) (UniProt O95436). Description: flow cytometry, transfected HEK293-6e cells, antibody 0.5 nM (footnote b). On the technique in general: In flow cytometry, cells or beads pass a laser one at a time.
For test [18], the target named is Construct 1 (chimeric human NaPi2b, swap in NaPi2c in 239-259) (human). The test is described as above.
In test [19] the target is Construct 3 (chimeric human NaPi2b, swap in NaPi2c in 304-321) (human). The description is as above.
In test [20] the target is Full length human NaPi2b (sodium-dependent phosphate transporter 2B, SLC34A2) (human) (UniProt O95436). The description is as above.
Test [21] addresses Construct 5 (chimeric human NaPi2b, swap in NaPi2a in 304-348) (human). Described as above.
Test [22] deals with Construct 2 (chimeric human NaPi2b, swap in NaPi2c in 280-301) (human). The description is as above.
Sequence of Construct 2 (chimeric human NaPi2b, swap in NaPi2c in 280-301) (human) (O95436 other isoform, or with tags, fused parts or gaps mutant): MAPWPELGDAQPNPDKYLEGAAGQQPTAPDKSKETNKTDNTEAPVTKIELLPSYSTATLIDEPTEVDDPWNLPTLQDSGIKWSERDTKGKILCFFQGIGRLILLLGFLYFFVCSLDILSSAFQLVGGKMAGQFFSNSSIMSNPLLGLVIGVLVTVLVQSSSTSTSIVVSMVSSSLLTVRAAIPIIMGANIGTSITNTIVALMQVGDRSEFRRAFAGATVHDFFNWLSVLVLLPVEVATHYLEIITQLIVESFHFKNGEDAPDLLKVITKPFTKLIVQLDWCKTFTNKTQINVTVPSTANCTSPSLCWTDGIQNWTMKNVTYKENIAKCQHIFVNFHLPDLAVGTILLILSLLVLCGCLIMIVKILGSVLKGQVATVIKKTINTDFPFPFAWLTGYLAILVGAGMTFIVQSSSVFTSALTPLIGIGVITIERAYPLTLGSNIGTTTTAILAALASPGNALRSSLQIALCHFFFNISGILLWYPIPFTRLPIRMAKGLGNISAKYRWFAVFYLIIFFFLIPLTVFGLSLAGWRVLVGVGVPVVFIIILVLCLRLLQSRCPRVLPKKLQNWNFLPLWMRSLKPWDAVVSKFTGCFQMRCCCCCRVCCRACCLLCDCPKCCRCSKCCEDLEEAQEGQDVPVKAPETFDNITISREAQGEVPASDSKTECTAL
Test [23] concerns the target Construct 4 (chimeric human NaPi2b, swap in NaPi2c in 341-358) (human). The description is as above.
In test [24] the target is Construct 6 (human NaPi2b del 317-333) (human) (UniProt O95436). Described as above.
Sequence of Construct 6 (human NaPi2b del 317-333) (human) (O95436 other isoform, or with tags, fused parts or gaps): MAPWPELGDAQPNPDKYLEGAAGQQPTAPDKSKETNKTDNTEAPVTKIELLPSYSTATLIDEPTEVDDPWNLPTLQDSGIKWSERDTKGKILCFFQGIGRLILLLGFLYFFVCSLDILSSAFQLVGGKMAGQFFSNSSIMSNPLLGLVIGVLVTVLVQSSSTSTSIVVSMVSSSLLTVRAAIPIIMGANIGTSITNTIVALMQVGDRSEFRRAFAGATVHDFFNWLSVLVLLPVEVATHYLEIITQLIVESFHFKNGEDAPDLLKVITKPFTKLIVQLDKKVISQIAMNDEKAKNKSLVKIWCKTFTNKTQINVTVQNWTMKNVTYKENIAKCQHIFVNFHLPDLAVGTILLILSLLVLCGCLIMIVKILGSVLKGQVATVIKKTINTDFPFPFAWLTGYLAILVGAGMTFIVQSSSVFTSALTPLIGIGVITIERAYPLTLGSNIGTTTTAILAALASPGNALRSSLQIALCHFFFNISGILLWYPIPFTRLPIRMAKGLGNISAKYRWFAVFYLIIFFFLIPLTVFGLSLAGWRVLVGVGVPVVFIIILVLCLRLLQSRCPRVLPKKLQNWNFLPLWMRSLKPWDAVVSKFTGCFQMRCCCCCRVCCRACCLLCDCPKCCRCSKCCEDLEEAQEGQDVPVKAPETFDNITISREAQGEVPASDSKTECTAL
The target in test [25] is human sodium-dependent phosphate transporter 2B (NaPi2b) (human) (UniProt O95436). As to the kind of experiment: competition flow cytometry, human NaPi2b on HEK293-6e; row antibody unlabeled 100 ug/mL; competitor: labeled v18993 (lifastuzumab) 1 ug/mL.
Sequence of human sodium-dependent phosphate transporter 2B (NaPi2b) (human) (O95436 whole entry): as the sequence (O95436 whole entry) above
Test [26] shares this target. Description: competition flow cytometry, human NaPi2b on HEK293-6e; row antibody unlabeled 100 ug/mL; competitor: labeled v18992 (MX35) 1 ug/mL.
The target is the same in test [27]. Description: competition flow cytometry, human NaPi2b on HEK293-6e; row antibody unlabeled 100 ug/mL; competitor: labeled v23855 1 ug/mL.
For test [28] the target is unchanged. As to the kind of experiment: competition flow cytometry, human NaPi2b on HEK293-6e; row antibody unlabeled 100 ug/mL; competitor: labeled v16955 (negative control) 1 ug/mL.
For test [29], the target named is Fcγ receptor (FcγR) on the surface of immune effector cells. Description: cell-based or functional assay.

Sequence of Construct 4 (chimeric human NaPi2b, swap in NaPi2c in 341-358) (human) (O95436 other isoform, or with tags, fused parts or gaps mutant): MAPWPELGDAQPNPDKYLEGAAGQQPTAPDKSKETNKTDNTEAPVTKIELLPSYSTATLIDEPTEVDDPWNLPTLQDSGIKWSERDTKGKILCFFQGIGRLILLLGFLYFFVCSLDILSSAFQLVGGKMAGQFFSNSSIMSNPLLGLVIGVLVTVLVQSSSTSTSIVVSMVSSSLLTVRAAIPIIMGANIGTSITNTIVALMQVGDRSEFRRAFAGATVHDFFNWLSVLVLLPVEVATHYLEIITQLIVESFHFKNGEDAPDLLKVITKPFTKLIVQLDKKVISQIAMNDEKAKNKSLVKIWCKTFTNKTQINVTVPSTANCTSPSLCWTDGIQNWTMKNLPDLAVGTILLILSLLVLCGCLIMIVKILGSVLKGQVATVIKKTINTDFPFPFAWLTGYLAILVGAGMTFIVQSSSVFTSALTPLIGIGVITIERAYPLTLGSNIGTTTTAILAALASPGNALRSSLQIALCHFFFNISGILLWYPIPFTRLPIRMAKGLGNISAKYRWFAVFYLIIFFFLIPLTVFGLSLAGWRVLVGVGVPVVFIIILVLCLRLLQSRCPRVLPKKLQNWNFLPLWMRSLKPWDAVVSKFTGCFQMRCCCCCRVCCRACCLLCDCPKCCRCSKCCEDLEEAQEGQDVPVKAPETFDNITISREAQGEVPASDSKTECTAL
Sequence of Construct 1 (chimeric human NaPi2b, swap in NaPi2c in 239-259) (human) (O95436 other isoform, or with tags, fused parts or gaps mutant): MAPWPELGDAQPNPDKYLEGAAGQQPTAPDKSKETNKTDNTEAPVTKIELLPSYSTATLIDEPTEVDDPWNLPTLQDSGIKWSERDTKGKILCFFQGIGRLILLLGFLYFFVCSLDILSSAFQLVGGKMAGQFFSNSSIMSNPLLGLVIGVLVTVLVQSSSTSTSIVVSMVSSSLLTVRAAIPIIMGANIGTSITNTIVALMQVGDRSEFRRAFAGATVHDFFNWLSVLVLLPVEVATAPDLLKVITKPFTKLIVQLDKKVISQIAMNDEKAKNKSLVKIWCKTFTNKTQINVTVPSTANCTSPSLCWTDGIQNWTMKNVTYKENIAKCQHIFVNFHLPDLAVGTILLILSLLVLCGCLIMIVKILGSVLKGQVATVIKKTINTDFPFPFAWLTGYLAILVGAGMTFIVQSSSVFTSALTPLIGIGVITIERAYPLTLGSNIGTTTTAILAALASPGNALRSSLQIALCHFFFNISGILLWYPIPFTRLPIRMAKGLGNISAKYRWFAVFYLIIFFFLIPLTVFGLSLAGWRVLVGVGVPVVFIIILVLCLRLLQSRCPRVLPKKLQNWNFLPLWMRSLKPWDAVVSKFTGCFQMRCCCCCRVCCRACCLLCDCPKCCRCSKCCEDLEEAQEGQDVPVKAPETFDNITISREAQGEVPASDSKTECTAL
Sequence of Construct 3 (chimeric human NaPi2b, swap in NaPi2c in 304-321) (human) (O95436 other isoform, or with tags, fused parts or gaps mutant): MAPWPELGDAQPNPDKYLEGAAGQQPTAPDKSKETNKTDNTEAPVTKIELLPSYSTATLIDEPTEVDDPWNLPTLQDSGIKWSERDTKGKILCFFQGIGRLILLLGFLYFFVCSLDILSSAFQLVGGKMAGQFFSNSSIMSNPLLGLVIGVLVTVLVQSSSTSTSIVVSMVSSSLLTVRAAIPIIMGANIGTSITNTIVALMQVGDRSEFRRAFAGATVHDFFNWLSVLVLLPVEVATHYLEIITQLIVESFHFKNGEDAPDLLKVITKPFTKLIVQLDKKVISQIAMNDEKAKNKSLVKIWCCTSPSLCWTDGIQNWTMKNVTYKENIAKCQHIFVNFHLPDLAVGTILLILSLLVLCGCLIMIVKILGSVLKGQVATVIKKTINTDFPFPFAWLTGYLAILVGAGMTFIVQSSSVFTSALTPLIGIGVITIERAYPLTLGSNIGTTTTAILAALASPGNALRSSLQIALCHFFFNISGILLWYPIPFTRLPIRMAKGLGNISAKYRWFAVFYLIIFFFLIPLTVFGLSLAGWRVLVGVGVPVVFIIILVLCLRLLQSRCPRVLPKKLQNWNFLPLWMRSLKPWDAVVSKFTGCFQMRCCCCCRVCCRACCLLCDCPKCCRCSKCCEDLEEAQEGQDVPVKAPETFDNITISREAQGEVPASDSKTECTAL

Turning to “reference anti-NaPi2a antibody (polyclonal rabbit anti-human SLC34A1; Atlas Biotechnologies Inc; Cat. No. HPA051255)”, the Background-Subtracted AF647 Mean Fluorescence Intensity in test [1] amounted to 123 MFI; in test [2], 616 MFI; in test [3], 375 MFI; in test [4], 107 MFI; in [5] it was 339 MFI; in test [6], 230 MFI. Also, the Background-Subtracted AF647 Mean Fluorescence Intensity is 511 MFI in test [7]; 291 MFI in [8]; 1 MFI in [9]; 859 MFI in test [10]; 411 MFI in test [11]; 97 MFI in test [12]. For the same substance, the Background-Subtracted AF647 Mean Fluorescence Intensity was determined as 546 MFI in [13]; 222 MFI in test [14]; 250 MFI in test [15]; 283 MFI in test [16]; 369 MFI in [17]; 99 MFI in test [18]. Besides, the Background-Subtracted AF647 Mean Fluorescence Intensity in [19] amounted to 40 MFI; in test [20], 596 MFI; in [21], 119 MFI; in test [22], 70 MFI; in test [23], 146 MFI; in test [24], 666 MFI.

Consider “v16955 (Palivizumab, anti-RSV, negative control of Example 9) (antibody)”, for which the % Inhibition vs. irrelevant mAb in [25], in [26], in [27] and in test [28] was 0% throughout.

With v18992 (Fc wild-type MX-35) (antibody), in [29], the ADCC EC50 (nM) (25 PBMCs:1 IGROV-1, 4-hour incubation) was 0.035 nM and the ADCP EC50 (nM) (2 Macs:1 IGROV-1, 2-hour incubation) turned out to be 0.043 nM.

For “Lifastuzumab (v18993, wild-type Fc) (antibody)”, in [29], the % ADCC at 0.0192 nM (25 PBMCs:1 IGROV-1, 4 h) is 5.96%; the % ADCC at 0.48 nM (25 PBMCs:1 IGROV-1, 4 h) turned out to be 14%; the % ADCC at 12 nM (25 PBMCs:1 IGROV-1, 4 h) is 14.4%.

For the origin of these results see US20260232827A1, “ANTIBODY-DRUG CONJUGATES TARGETING NAPI2B AND METHODS OF USE” (Zymeworks BC Inc., priority 2023, published 2026).
